For this assay, the target named is Human recombinant FGF 1 (fibroblast growth factor 1) (human) (UniProt P05230). The assay can be described thus: native MS.

As usually defined, the stoichiometry N is the number of molecules, sites or subunits per partner or assembly. In the case of “Human recombinant FGF 1 (fibroblast growth factor 1) (from UniProt P05230 16-155) (natural protein)”, the stoichiometry N worked out at 2.

Values taken from PMC5177502.
